Source: the supplement of paper PMC11780869

System: Bacillus subtilis
Assay: cleaved RNA product abundance (RNA/gDNA barcode ratio) relative to median wild-type variant (ratio to wild type); higher = more accumulation of the downstream cleavage product
Conditions: experiment (reporter, strain, medium): exp 8a: truncated aprE reporter, strain BJT201 with 2% xylose (RNase J1 expressed); cleavage site: glnRA (positions -5 to +31 mutated)
Procedure, shortened: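 Oligos with a 9% error rate were used to build barcoded, mutagenized RNase Y cleavage-site windows within truncated aprE or tetM reporter mRNAs, which were integrated into the B. subtilis chromosome. Cultures were grown in LB at 37°C between OD600 0.0003 and 0.3. Cleaved RNA was gel-selected, reverse transcribed and barcode-sequenced, as were genomic DNA barcodes, and UMIs were collapsed. Cleaved product abundance is the scaled RNA:gDNA barcode ratio, with the median construct carrying the unmutated site as reference.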

Sequence | cleaved RNA product abundance
CGACATGTCCCGCTTCTTTCATTAATCCTTCAGCAACTGTTTTGCTATATACATTTACCTTTTAAGAGGAGGAAT | 0.478
CGACATGTCCCGCTTCTTTCATTAATCCTTGAGCAACTGTTTTGCTATATACATTTACCTTTTAAGAGGAGGAAT | 0.57
CGACATGTCCCGCTTCTTTCATTAATCCTTTAAAAAGTGTTTTGCTATATACATTTACCTTTTAAGAGGAGGAAT | 0.182
CGACATGTCCCGCTTCTTTCATTAATCCTTTAACAACTGTTTTGCTATATACATTTACCTTTTAAGAGGAGGAAT | 0.154
CGACATGTCCCGCTTCTTTCATTAATCCTTTACCAACTGTTTTGCTATATACATTTACCTTTTAAGAGGAGGAAT | 0.125
CGACATGTCCCGCTTCTTTCATTAATCCTTTAGAAACTGTTTTGCTATATACATTTACCTTTTAAGAGGAGGAAT | 0.18
CGACATGTCCCGCTTCTTTCATTAATCCTTTAGCAAATGTTTTGCTATATACATTTACCTTTTAAGAGGAGGAAT | 0.608
CGACATGTCCCGCTTCTTTCATTAATCCTTTAGCAACAGTTTTGCTATATACATTTACCTTTTAAGAGGAGGAAT | 0.115
CGACATGTCCCGCTTCTTTCATTAATCCTTTAGCAACGGTTTTGCTATATACATTTACCTTTTAAGAGGAGGAAT | 0.7
CGACATGTCCCGCTTCTTTCATTAATCCTTTAGCAACTATTTTGCTATATACATTTACCTTTTAAGAGGAGGAAT | 0.828
CGACATGTCCCGCTTCTTTCATTAATCCTTTAGCAACTCTTTTGCTATATACATTTACCTTTTAAGAGGAGGAAT | 1.2
CGACATGTCCCGCTTCTTTCATTAATCCTTTAGCAACTGATTTGCTATATACATTTACCTTTTAAGAGGAGGAAT | 0.509
CGACATGTCCCGCTTCTTTCATTAATCCTTTAGCAACTGCTTTGCTATATACATTTACCTTTTAAGAGGAGGAAT | 0.292
CGACATGTCCCGCTTCTTTCATTAATCCTTTAGCAACTGGTTTGCTATATACATTTACCTTTTAAGAGGAGGAAT | 0.306
CGACATGTCCCGCTTCTTTCATTAATCCTTTAGCAACTGTATTGCTATATACATTTACCTTTTAAGAGGAGGAAT | 0.83
CGACATGTCCCGCTTCTTTCATTAATCCTTTAGCAACTGTCTTGCTATATACATTTACCTTTTAAGAGGAGGAAT | 0.661
CGACATGTCCCGCTTCTTTCATTAATCCTTTAGCAACTGTTATGCTATATACATTTACCTTTTAAGAGGAGGAAT | 0.471
CGACATGTCCCGCTTCTTTCATTAATCCTTTAGCAACTGTTTCGCTATATACATTTACCTTTTAAGAGGAGGAAT | 0.282
CGACATGTCCCGCTTCTTTCATTAATCCTTTAGCAACTGTTTTACTATATACATTTACCTTTTAAGAGGAGGAAT | 0.513
CGACATGTCCCGCTTCTTTCATTAATCCTTTAGCAACTGTTTTCCTATATACATTTACCTTTTAAGAGGAGGAAT | 0.283
CGACATGTCCCGCTTCTTTCATTAATCCTTTAGCAACTGTTTTGATATATACATTTACCTTTTAAGAGGAGGAAT | 0.374
CGACATGTCCCGCTTCTTTCATTAATCCTTTAGCAACTGTTTTGCAATATACATTTACCTTTTAAGAGGAGGAAT | 0.453

Sequence | cleaved RNA product abundance
CGACATGTCCCGCTTCTTTCATTAATCCTTTAGCAACTGTTTTGCCATATACATTTACCTTTTAAGAGGAGGAAT | 0.2
CGACATGTCCCGCTTCTTTCATTAATCCTTTAGCAACTGTTTTGCGATATACATTTACCTTTTAAGAGGAGGAAT | 0.366
CGACATGTCCCGCTTCTTTCATTAATCCTTTAGCAACTGTTTTGCGATATACATTTACTTTTTAAGAGGAGGAAT | 0.438
CGACATGTCCCGCTTCTTTCATTAATCCTTTAGCAACTGTTTTGCTATAAACATTTACCTTTTAAGAGGAGGAAT | 0.176
CGACATGTCCCGCTTCTTTCATTAATCCTTTAGCAACTGTTTTGCTATACACATTTACCTTTTAAGAGGAGGAAT | 0.451
CGACATGTCCCGCTTCTTTCATTAATCCTTTAGCAACTGTTTTGCTATATACAATTACCTTTTAAGAGGAGGAAT | 0.889
CGACATGTCCCGCTTCTTTCATTAATCCTTTAGCAACTGTTTTGCTATATACAGTTACCTTTTAAGAGGAGGAAT | 0.604
CGACATGTCCCGCTTCTTTCATTAATCCTTTAGCAACTGTTTTGCTATATACATATACCTTTTAAGAGGAGGAAT | 0.842
CGACATGTCCCGCTTCTTTCATTAATCCTTTAGCAACTGTTTTGCTATATACATTAACCTTTTAAGAGGAGGAAT | 0.846
CGACATGTCCCGCTTCTTTCATTAATCCTTTAGCAACTGTTTTGCTATATACATTGACCTTTTAAGAGGAGGAAT | 0.333
CGACATGTCCCGCTTCTTTCATTAATCCTTTAGCAACTGTTTTGCTATATACATTTACATTTTAAGAGGAGGAAT | 0.783
CGACATGTCCCGCTTCTTTCATTAATCCTTTAGCAACTGTTTTGCTATATACATTTACCATTTAAGAGGAGGAAT | 0.837
CGACATGTCCCGCTTCTTTCATTAATCCTTTAGCAACTGTTTTGCTATATACATTTACCTTTTAAGAGGAGGAAT | 0.612
CGACATGTCCCGCTTCTTTCATTAATCCTTTAGCAACTGTTTTGCTATATACATTTATCTTTTAAGAGGAGGAAT | 0.826
CGACATGTCCCGCTTCTTTCATTAATCCTTTAGCAACTGTTTTGCTATATACATTTCCCTTTTAAGAGGAGGAAT | 0.343
CGACATGTCCCGCTTCTTTCATTAATCCTTTAGCAACTGTTTTGCTATATATATTTACCTTTTAAGAGGAGGAAT | 0.909
CGACATGTCCCGCTTCTTTCATTAATCCTTTAGCAACTGTTTTGCTTTATACATTTACCTTTTAAGAGGAGGAAT | 0.174
CGACATGTCCCGCTTCTTTCATTAATCCTTTAGCAACTGTTTTGTTATATACATTTACCTTTTAAGAGGAGGAAT | 0.553
CGACATGTCCCGCTTCTTTCATTAATCCTTTAGCAACTGTTTTTCTATATACATTTACCTTTTAAGAGGAGGAAT | 0.478
CGACATGTCCCGCTTCTTTCATTAATCCTTTAGCAAGTGTTTTGCTATATACATTTACCTTTTAAGAGGAGGAAT | 0.82
CGACATGTCCCGCTTCTTTCATTAATCCTTTAGCATCTCTTTTGCTATATACATTTACCTTTTAAGAGGAGGAAT | 0.512
CGACATGTCCCGCTTCTTTCATTAATCCTTTAGCCACTGTTTTGCTATATACATTTACCTTTTAAGAGGAGGAAT | 0.253

Sequence | cleaved RNA product abundance
CGACATGTCCCGCTTCTTTCATTAATCCTTTAGTAACTGTTTTGCTATATACATTTACCTTTTAAGAGGAGGAAT | 0.378
CGACATGTCCCGCTTCTTTCATTAATCCTTTCGCAACTGTTTTGCTATATACATTTACCTTTTAAGAGGAGGAAT | 0.299
CGACATGTCCCGCTTCTTTCATTAATCGATTAGCAACTGTTTTGCTATATACATTTACCTTTTAAGAGGAGGAAT | 0.79
CGACATGTCCCGCTTCTTTCATTAATCGCTTAGCAACTGTTTTGCTATATACATTTACCTTTTAAGAGGAGGAAT | 0.335
CGACATGTCCCGCTTCTTTCATTAATCGGTTAACAAATGTTGTGCTATAGACATTTACCTTTTAAGAGGAGGAAT | 0.209
CGACATGTCCCGCTTCTTTCATTAATCGGTTAGAAACTGTTTTGCTATATACATTTACCTTTTAAGAGGAGGAAT | 0.222
CGACATGTCCCGCTTCTTTCATTAATCGGTTAGCAACAGTTTTGCTATATACATTTACCTTTTAAGAGGAGGAAT | 0.927
CGACATGTCCCGCTTCTTTCATTAATCGGTTAGCAACTGTTTTGATATATACATTTACCTTTTAAGAGGAGGAAT | 0.356
CGACATGTCCCGCTTCTTTCATTAATCGGTTAGCAACTGTTTTGCAATATACATTTACCTTTTAAGAGGAGGAAT | 0.349
CGACATGTCCCGCTTCTTTCATTAATCGGTTAGCAACTGTTTTGCTATAAACATTTACCTTTTAAGAGGAGGAAT | 0.876
CGACATGTCCCGCTTCTTTCATTAATCGGTTAGCAACTGTTTTGCTATATACATTAACCTTTTAAGAGGAGGAAT | 1.51
CGACATGTCCCGCTTCTTTCATTAATCGGTTAGCAACTGTTTTGCTATATACATTTACCTTTTAAGAGGAGGAAT | 0.613
CGACATGTCCCGCTTCTTTCATTAATCGGTTAGCAACTGTTTTGCTATATATATTTACCTTTTAAGAGGAGGAAT | 0.947
CGACATGTCCCGCTTCTTTCATTAATCGGTTAGCAACTGTTTTGCTATCTACATTTACCTTTTAAGAGGAGGAAT | 0.132
CGACATGTCCCGCTTCTTTCATTAATCGGTTATCAACTGTTTTGCTATATACATTTACCTTTTAAGAGGAGGAAT | 0.206
CGACATGTCCCGCTTCTTTCATTAATCTATTAGCAACTGTTTTGCTATTTACATTTACCTTTTAAGAGGAGGAAT | 0.311
CGACATGTCCCGCTTCTTTCATTAATCTGATAGCAACTGTTTTGCTATATACATTTACCTTTTAAGAGGAGGAAT | 0.81
CGACATGTCCCGCTTCTTTCATTAATCTGTAAGCAACTGTTTTGCTATATACATTTACCTTTTAAGAGGAGGAAT | 0.539
CGACATGTCCCGCTTCTTTCATTAATCTGTGAGCAACTGTTTTGCTATATACATTTACCTTTTAAGAGGAGGAAT | 0.777
CGACATGTCCCGCTTCTTTCATTAATCTGTTAACAACTGTTTTGCTATATACATTTACCTTTTAAGAGGAGGAAT | 0.238
CGACATGTCCCGCTTCTTTCATTAATCTGTTAGAAACTGTTTTGCTATATACATTTACCTTTTAAGAGGAGGAAT | 0.269
CGACATGTCCCGCTTCTTTCATTAATCTGTTAGCAACAGTTTTGCTATATACATTTACCTTTTAAGAGGAGGAAT | 0.686
